Two molecules from US20150086555A1 can be followed below.

Settings in all cases: remark: other sources report otherwise
Test [1] concerns the target recombinant soluble homotrimeric HA of A/Hong Kong/1073/99 (H9N2) (Influenza A virus A/Hong Kong/1073/99 (H9N2)). In words: trimeric HA microarray, transfection supernatant set 2.
Test [2] addresses T1, recombinant soluble homotrimeric HA of A/Hong Kong/2108/03 (H9N2) (Influenza A virus A/HK/2108/2003(H9N2)). The description is as above.
Test [3] addresses T2, recombinant soluble homotrimeric HA of A/northern shoveler/California/HKWF115/07 (H6) (Influenza A virus A/northern shoveler/California/HKWF115/2007(H6N1)). The test is described as above.
Test [4] concerns the target recombinant soluble homotrimeric HA of A/Anhui/1/05 (H5N1) (Influenza A virus A/Anhui/1/2005(H5N1)). In words: trimeric HA microarray, transfection supernatant set 3.
The target in test [5] is recombinant soluble homotrimeric HA of A/California/4/09 (H1N1) (Influenza A virus A/California/04/2009(H1N1)). Described as above.
Test [6] deals with recombinant soluble homotrimeric HA of A/Egypt/3300-NAMRU3/08 (H5N1) (Influenza A virus A/Egypt/3300-NAMRU3/2008(H5N1)). The description is as above.
The target of test [7] is recombinant soluble homotrimeric HA of A/Indonesia/5/05 (H5N1) (Influenza A virus A/Indonesia/5/2005(H5N1)). Described as above.
Test [8] concerns the target T3, recombinant soluble homotrimeric HA of A/Japan/305/57 (H2N2) (Influenza A virus A/Japan/305/1957(H2N2)). Described as above.
Test [9] has as its target recombinant soluble homotrimeric HA of A/Netherlands/219/03 (H7N7) (Influenza A virus A/Netherlands/219/03(H7N7)). The description is as above.
Test [10] addresses T4, recombinant soluble homotrimeric HA of A/Solomon Islands/3/06 (H1N1) (Influenza A virus A/Solomon Islands/3/2006(H1N1)). The test is described as above.
Test [11] concerns the target recombinant soluble homotrimeric HA of A/South Carolina/1/18 (H1N1) (Influenza A virus A/South Carolina/1/18 (H1N1)). The test is described as above.
The target of test [12] is recombinant soluble homotrimeric HA of A/Vietnam/1203/04 (H5N1) (Influenza A virus A/VietNam/1203/2004(H5N1)). The test is described as above.
The target in test [13] is T5, recombinant soluble homotrimeric HA of A/chicken/Vietnam/NCVD-016/08 (H5N1) (Influenza A virus A/chicken/Vietnam/NCVD-016/2008(H5N1)). The description is as above.
Test [14] concerns the target T2, recombinant soluble homotrimeric HA of …. Described as above.
Test [15] concerns the target T1, recombinant soluble homotrimeric HA of …. The experiment in a line: trimeric HA microarray, transfection supernatant set 4.
In test [16] the target is T3, recombinant soluble homotrimeric HA of …. Described as above.
Test [17] has as its target T4, recombinant soluble homotrimeric HA of …. The test is described as above.
Test [18] deals with T5, recombinant soluble homotrimeric HA of …. Described as above.

B1: TCN-523 (5248_A17) (antibody, V domains shown)
VH: QVQLVQSGAEVKKPGSSVKVSCKASGGSFSNYAFSWVRQAPGQGLEWMGGTIPLLGTTNYAQKFQGRVTISADQFTSTAYMELGSLRSEDTAVYYCTRRKMTTAFDSWGQGTLVTVSS
VL: QPVLTQPPSASASLGASVTLTCTLSSAYSNYKVDWYQQRPGKGPRFVMRVGTGGIVGSKGDGIPDRFSVLGSGLNRYLTIKNIQEEDESDYHCGADHGSGSNFVSPYVFGGGTKLTVL
For the molecule B1, the Trimeric HA Binding: RLU in [1] was determined as 31300 RLU; in test [2] it was 18 RLU; in [3], 21200 RLU; in [4], 546 RLU; in test [5], 19400 RLU; in [6], 29100 RLU. Also, the Trimeric HA Binding: RLU in test [7] was 22000 RLU; in [8] it was 4550 RLU; in [9], 3140 RLU; in [10] it was 11000 RLU; in [11] it was 23700 RLU; in test [12], 22100 RLU. Also, the Trimeric HA Binding: RLU stood at 18900 RLU in [13]; 29400 RLU in test [14]; 38 RLU in test [15]; 3840 RLU in test [16]; 371 RLU in [17]; 24000 RLU in test [18].

B2: TCN-534 (5249_B02) (antibody, V domains shown)
VH: QVQLVQSGAEVKKPGSSVKVSCRESGGTFNGYTITWVRQAPGQGLEWMGGIIPMMGTVNYAQKLQGRVTITTDYFTKTAYMDLNNLRSEDTAMYYCVKIRYTGQQLLWGQGTLVTVSS
VL: DIQMTQSPSTLSASIGDRVTITCRASQSIASWLAWYQQKPGKAPKLLIYEAVNLESGVPSRFSGSGSGTDFTLTISSLQPDDFATYFCQHYGTISQTFGGGTKVEIK
Regarding B2, the Trimeric HA Binding: RLU in [15] is 27 RLU; in test [16], 14700 RLU; in test [17], 60 RLU; in [18], 11400 RLU.
